Data taken from article PMC7401805, “Tissue specific requirement of Drosophila Rcd4 for centriole duplication and ciliogenesis” (The Journal of Cell Biology, 2020).
One block for each binder: values may come before it.

Key:
[1] = target: T1, MBP-tagged Ana3-C1 fragment (amino acids 1195-1977) (Drosophila melanogaster, UniProt A1Z8X3 1195-1977); test: pull-down; GST-Rcd4 held on glutathione-sepharose 4B beads, MBP-tagged Ana3 fragment added, 1 h at 4°C; 20 mM Tris pH 7.5, 200 mM NaCl, 1 mM DTT, 10% glycerol; SDS-PAGE (Coomassie) and anti-MBP Western blot; conditions: both partners purified
T1 construct: Vector pKM596; also called MBP::Ana3 C1; Ana3-C terminal 1; source: E. coli Rosetta BL21(DE3), purified; not shown: MBP, N-terminal, kept
T1 sequence (looked up): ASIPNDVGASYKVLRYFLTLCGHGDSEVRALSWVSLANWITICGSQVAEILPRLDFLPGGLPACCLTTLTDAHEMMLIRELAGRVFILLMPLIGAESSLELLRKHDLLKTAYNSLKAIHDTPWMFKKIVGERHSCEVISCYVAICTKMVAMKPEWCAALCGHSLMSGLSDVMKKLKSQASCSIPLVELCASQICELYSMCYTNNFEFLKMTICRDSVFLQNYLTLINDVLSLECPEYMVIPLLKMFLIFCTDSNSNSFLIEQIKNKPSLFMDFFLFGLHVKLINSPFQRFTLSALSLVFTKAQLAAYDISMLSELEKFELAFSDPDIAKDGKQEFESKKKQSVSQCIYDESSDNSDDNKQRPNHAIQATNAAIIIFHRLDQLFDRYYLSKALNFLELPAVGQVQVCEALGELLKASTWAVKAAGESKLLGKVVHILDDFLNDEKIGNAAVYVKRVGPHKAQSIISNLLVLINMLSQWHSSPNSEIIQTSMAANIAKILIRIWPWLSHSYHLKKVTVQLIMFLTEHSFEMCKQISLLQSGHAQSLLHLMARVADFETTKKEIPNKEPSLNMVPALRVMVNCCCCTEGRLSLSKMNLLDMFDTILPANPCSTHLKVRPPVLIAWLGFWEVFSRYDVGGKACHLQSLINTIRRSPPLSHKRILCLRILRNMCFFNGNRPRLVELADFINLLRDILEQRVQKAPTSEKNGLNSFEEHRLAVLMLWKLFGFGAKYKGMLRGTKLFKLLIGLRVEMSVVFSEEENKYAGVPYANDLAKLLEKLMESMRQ

[2] = target: T2, GST-tagged full-length Ana3 (Drosophila melanogaster, UniProt A1Z8X3 1-1977); test: pull-down; full-length GST-Ana3 purified from S. cerevisiae incubated with MBP-Rcd4 purified from E. coli; GST::Ana3 purified, SDS-PAGE (Coomassie) and Western blot for MBP::Rcd4; conditions: both partners purified
T2 construct: Ana3, Drosophila melanogaster; also called GST::Ana3; GST-Ana3; source: S. cerevisiae (plasmid pMG1): coexpressed with 6xHis-Rcd4, in crude extract; also expressed alone and purified on glutathione beads

- binding result [1]: binds
B1: GST-tagged Rcd4 (natural protein, Drosophila melanogaster, UniProt Q9VLM6 1-199, looked up)
chain: MPHKRRNRVHANQRNFTARRVSVAKLSSAPPNVLVESCNGSHADNSSPDSPKAKEGAMTNGKNPEIKLAVPKCNTTVRKQNEAHIISNIKLDMNLNKDSNFIAPQITKKMNFAPNRVVFGVLVPLNVNDSVLVPHNRKPDALKHTSKESESCKAISEPQLADYAEKVDPMIMAVKEPVLHLDWEPGPFDFFGAYRRTYN
notes: Rcd4, Drosophila melanogaster; 199 amino acid protein; also called GST::Rcd4; GST-Rcd4; source: E. coli Rosetta BL21(DE3), purified on glutathione-sepharose 4B beads; not shown: GST, N-terminal, kept

- binding result [2]: binds
B2: MBP-tagged Rcd4 (natural protein, Drosophila melanogaster, UniProt Q9VLM6 1-199, looked up)
chain: B1 chain
notes: Rcd4, Drosophila melanogaster; 199 amino acid protein; also called MBP::Rcd4; MBP-Rcd4; source: E. coli Rosetta BL21(DE3), purified; not shown: MBP, N-terminal, kept
